As usually defined, the Kd is the constant that tells how readily two partners part at equilibrium.

28 molecules from patent publication US20240391984A1 can be followed below.

Experiment [1] concerns the target polyclonal IgG (Gammanorm, Octapharma, Sweden). Nature of the experiment: SPR (Biacore 8K+), variant amine-coupled to CM5, Gammanorm as analyte, steady state fit. (In general: SPR reads the build-up and loss of mass on a sensor chip optically.)
The target is the same in experiment [2]. Nature of the experiment: SPR (Biacore 8K+), variant amine-coupled to CM5, Gammanorm as analyte, 1:1 kinetic fit.

B1: pAM161 (C2 domain of Protein L; pos 10 Q, pos 45 A, pos 60 Q) (designed binder)
chain: PKEEVTIKVQLIFADGKTQTAEFKGTFEEATAKAYAYADLLAKEAGEYTADLEDGGNTIQIKFAGKETPETPEE
In turn, B1 registered a Kd in experiment [1] of 110 nM.

B2: pAM151 (C3 domain of Protein L; pos 10 N, pos 39 D, pos 45 N, pos 57 Y, pos 60 N) (designed binder)
chain: PKEEVTIKVNLIFADGKIQTAEFKGTFEEATAKAYAYADLLAKENGEYTADLEDGGYTINIKFAGKETPETPEE
On to B2, for which the dissociation constant Kd in experiment [1] was 30 nM. This Kd lies about 3.7-fold lower than the previous one.

B3: pAM150 (C3 domain of Protein L; pos 10 N, pos 45 N, pos 60 N) (protein)
chain: PKEEVTIKVNLIFADGKIQTAEFKGTFEEATAKAYAYANLLAKENGEYTADLEDGGNTINIKFAGKETPETPEE
The molecule B3 showed a dissociation constant Kd in experiment [1] of 40 nM.

B4: pAM163 (C3 domain of Protein L; pos 10 Q, pos 45 A, pos 60 Q) (designed binder)
chain: PKEEVTIKVQLIFADGKIQTAEFKGTFEEATAKAYAYANLLAKEAGEYTADLEDGGNTIQIKFAGKETPETPEE
In experiment [1], B4 displayed a Kd of 188 nM.

B5: pAM164 (C3 domain of Protein L; pos 10 Q, pos 39 D, pos 45 A, pos 57 Y, pos 60 Q) (designed binder)
chain: PKEEVTIKVQLIFADGKIQTAEFKGTFEEATAKAYAYADLLAKEAGEYTADLEDGGYTIQIKFAGKETPETPEE
Consider B5, for which, in experiment [1], the dissociation constant (Kd) worked out at 39 nM.

B6: pAM177 (C3 domain of Protein L; pos 10 Y, pos 39 D, pos 45 H, pos 57 Y, pos 60 Y) (designed binder)
chain: PKEEVTIKVYLIFADGKIQTAEFKGTFEEATAKAYAYADLLAKEHGEYTADLEDGGYTIYIKFAGKETPETPEE
For B6, in experiment [1], the dissociation constant (Kd) came out at 58 nM.

B7: pAM176 (C3 domain of Protein L; pos 10 Y, pos 45 H, pos 60 Y) (designed binder)
chain: PKEEVTIKVYLIFADGKIQTAEFKGTFEEATAKAYAYANLLAKEHGEYTADLEDGGNTIYIKFAGKETPETPEE
In experiment [1], B7 yielded a dissociation constant (Kd) of 137 nM.

B8: pAM152 (C4 domain of Protein L; pos 10 N, pos 45 N, pos 60 N) (protein)
chain: PKEEVTIKVNLIFADGKTQTAEFKGTFEEATAEAYRYADLLAKVNGEYTADLEDGGYTINIKFAGKEQPGENPG
B8 displayed a dissociation constant Kd in experiment [1] of 24 nM.

B9: pAM178 (C4 domain of Protein L; pos 10 Y, pos 45 H, pos 60 Y) (designed binder)
chain: PKEEVTIKVYLIFADGKTQTAEFKGTFEEATAEAYRYADLLAKVHGEYTADLEDGGYTIYIKFAGKEQPGENPG
As for B9, the Kd in experiment [1] stood at 45 nM.

B10: pAM165 (C4 domain of Protein L; pos 10 Q, pos 45 A, pos 60 Q) (designed binder)
chain: PKEEVTIKVQLIFADGKTQTAEFKGTFEEATAEAYRYADLLAKVAGEYTADLEDGGYTIQIKFAGKEQPGENPG
As to B10, the Kd in experiment [1] was found to be 38 nM.

B11: pAM115 (B3 domain of Protein L; pos 10 N, pos 45 A, pos 60 N) (designed binder)
chain: PKEEVTIKANLIYADGKTQTAEFKGTFEEATAEAYRYADLLAKEAGKYTVDVADKGYTLNIKFAGKEKTPEE
With B11, the Kd was 51 nM in experiment [1] and 12 nM in experiment [2].

B12: pAM130 (B3 domain of Protein L; pos 10 Q, pos 45 H, pos 60 Q) (designed binder)
chain: PKEEVTIKAQLIYADGKTQTAEFKGTFEEATAEAYRYADLLAKEHGKYTVDVADKGYTLQIKFAGKEKTPEE
As to B12, the results for the Kd in experiment [1] and in experiment [2] were 57 nM and 19 nM, respectively.

B13: pAM135 (B3 domain of Protein L; pos 10 Y, pos 45 N, pos 60 Q) (designed binder)
chain: PKEEVTIKAYLIYADGKTQTAEFKGTFEEATAEAYRYADLLAKENGKYTVDVADKGYTLQIKFAGKEKTPEE
Take B13: the Kd in experiment [1] worked out at 61 nM; in experiment [2], 17 nM.

B14: pAM127 (B3 domain of Protein L; pos 10 Q, pos 45 N, pos 60 Y) (designed binder)
chain: PKEEVTIKAQLIYADGKTQTAEFKGTFEEATAEAYRYADLLAKENGKYTVDVADKGYTLYIKFAGKEKTPEE
In the case of B14, the Kd in experiment [1] stood at 62 nM; in experiment [2], 15 nM.

B15: pAM124 (B3 domain of Protein L; pos 10 Q, pos 45 A, pos 60 N) (designed binder)
chain: PKEEVTIKAQLIYADGKTQTAEFKGTFEEATAEAYRYADLLAKEAGKYTVDVADKGYTLNIKFAGKEKTPEE
On to B15, for which the Kd in experiment [1] came out at 51 nM; in experiment [2] it was 12 nM.

B16: pAM123 (B3 domain of Protein L; pos 10 Q, pos 45 N, pos 60 N) (designed binder)
chain: PKEEVTIKAQLIYADGKTQTAEFKGTFEEATAEAYRYADLLAKENGKYTVDVADKGYTLNIKFAGKEKTPEE
For the molecule B16, the values for the equilibrium dissociation constant (Kd) in experiment [1] and in experiment [2] were 51 nM and 13 nM, respectively.

B17: pAM137 (B3 domain of Protein L; pos 10 Y, pos 45 A, pos 60 Q) (designed binder)
chain: PKEEVTIKAYLIYADGKTQTAEFKGTFEEATAEAYRYADLLAKEAGKYTVDVADKGYTLQIKFAGKEKTPEE
On to B17, for which the values for the dissociation constant (Kd) in experiment [1] and in experiment [2] were 64 nM and 18 nM, respectively.

B18: pAM116 (B3 domain of Protein L; pos 10 N, pos 45 H, pos 60 N) (designed binder)
chain: PKEEVTIKANLIYADGKTQTAEFKGTFEEATAEAYRYADLLAKEHGKYTVDVADKGYTLNIKFAGKEKTPEE
For B18, the values for the Kd in experiment [1] and in experiment [2] were 51 nM and 14 nM, respectively.

B19: pAM119 (B3 domain of Protein L; pos 10 N, pos 45 A, pos 60 Q) (designed binder)
chain: PKEEVTIKANLIYADGKTQTAEFKGTFEEATAEAYRYADLLAKEAGKYTVDVADKGYTLQIKFAGKEKTPEE
With B19, the Kd in experiment [1] turned out to be 58 nM; in experiment [2], 16 nM.

B20: pAM129 (B3 domain of Protein L; pos 10 Q, pos 45 A, pos 60 Y) (designed binder)
chain: PKEEVTIKAQLIYADGKTQTAEFKGTFEEATAEAYRYADLLAKEAGKYTVDVADKGYTLYIKFAGKEKTPEE
Consider B20, for which the Kd in experiment [1] is 63 nM; in experiment [2], 14 nM.

B21: pAM126 (B3 domain of Protein L; pos 10 Q, pos 45 N, pos 60 Q) (designed binder)
chain: PKEEVTIKAQLIYADGKTQTAEFKGTFEEATAEAYRYADLLAKENGKYTVDVADKGYTLQIKFAGKEKTPEE
On to B21, for which the dissociation constant (Kd) worked out at 52 nM in experiment [1] and 16 nM in experiment [2].

B22: pAM133 (B3 domain of Protein L; pos 10 Y, pos 45 A, pos 60 N) (designed binder)
chain: PKEEVTIKAYLIYADGKTQTAEFKGTFEEATAEAYRYADLLAKEAGKYTVDVADKGYTLNIKFAGKEKTPEE
As to B22, the equilibrium dissociation constant (Kd) is 46 nM in experiment [1] and 13 nM in experiment [2].

B23: pAM128 (previously disclosed benchmarking Protein L ligand; B3 domain with pos 10 Q, pos 45 A, pos 60 Q) (designed binder)
chain: PKEEVTIKAQLIYADGKTQTAEFKGTFEEATAEAYRYADLLAKEAGKYTVDVADKGYTLQIKFAGKEKTPEE
Take B23: the Kd in experiment [1] was 60 nM; in experiment [2] it was 17 nM.

B24: pAM134 (B3 domain of Protein L; pos 10 Y, pos 45 H, pos 60 N) (designed binder)
chain: PKEEVTIKAYLIYADGKTQTAEFKGTFEEATAEAYRYADLLAKEHGKYTVDVADKGYTLNIKFAGKEKTPEE
B24: the equilibrium dissociation constant (Kd) is 55 nM in experiment [1] and 18 nM in experiment [2].

B25: pAM117 (B3 domain of Protein L; pos 10 N, pos 45 N, pos 60 Q) (designed binder)
chain: PKEEVTIKANLIYADGKTQTAEFKGTFEEATAEAYRYADLLAKENGKYTVDVADKGYTLQIKFAGKEKTPEE
Consider B25, for which the results for the Kd in experiment [1] and in experiment [2] were 60 nM and 18 nM, respectively.

B26: pAM153 (D1 domain; pos 10 N, pos 45 N, pos 60 N) (protein)
chain: PKEEVTIKANLIFADGKTQTAEFKGTFEEATAEAYRYADLLAKVNGEYTADLEDGGYTINIKFAGKEQPGEN
With B26, the equilibrium dissociation constant (Kd) in experiment [1] came to 32 nM. This counts as double-digit nanomolar.

B27: pAM166 (D1 domain; pos 10 Q, pos 45 A, pos 60 Q) (designed binder)
chain: PKEEVTIKAQLIFADGKTQTAEFKGTFEEATAEAYRYADLLAKVAGEYTADLEDGGYTIQIKFAGKEQPGEN
With B27, the Kd in experiment [1] was found to be 41 nM.

B28: pAM179 (D1 domain; pos 10 Y, pos 45 H, pos 60 Y) (designed binder)
chain: PKEEVTIKAYLIFADGKTQTAEFKGTFEEATAEAYRYADLLAKVHGEYTADLEDGGYTIYIKFAGKEQPGEN
For B28, in experiment [1], the dissociation constant Kd came to 75 nM.
